Measured values reported in US20110027284A1 (Novartis, published 2011).

T1: recombinant human NiG (human, UniProt Q9NQC3 186-1004)
T1 construct: Recombinant fragment, amine-coupled to a CM5 chip; also called hNiG; human NiG-fragment of NogoA
T1 sequence: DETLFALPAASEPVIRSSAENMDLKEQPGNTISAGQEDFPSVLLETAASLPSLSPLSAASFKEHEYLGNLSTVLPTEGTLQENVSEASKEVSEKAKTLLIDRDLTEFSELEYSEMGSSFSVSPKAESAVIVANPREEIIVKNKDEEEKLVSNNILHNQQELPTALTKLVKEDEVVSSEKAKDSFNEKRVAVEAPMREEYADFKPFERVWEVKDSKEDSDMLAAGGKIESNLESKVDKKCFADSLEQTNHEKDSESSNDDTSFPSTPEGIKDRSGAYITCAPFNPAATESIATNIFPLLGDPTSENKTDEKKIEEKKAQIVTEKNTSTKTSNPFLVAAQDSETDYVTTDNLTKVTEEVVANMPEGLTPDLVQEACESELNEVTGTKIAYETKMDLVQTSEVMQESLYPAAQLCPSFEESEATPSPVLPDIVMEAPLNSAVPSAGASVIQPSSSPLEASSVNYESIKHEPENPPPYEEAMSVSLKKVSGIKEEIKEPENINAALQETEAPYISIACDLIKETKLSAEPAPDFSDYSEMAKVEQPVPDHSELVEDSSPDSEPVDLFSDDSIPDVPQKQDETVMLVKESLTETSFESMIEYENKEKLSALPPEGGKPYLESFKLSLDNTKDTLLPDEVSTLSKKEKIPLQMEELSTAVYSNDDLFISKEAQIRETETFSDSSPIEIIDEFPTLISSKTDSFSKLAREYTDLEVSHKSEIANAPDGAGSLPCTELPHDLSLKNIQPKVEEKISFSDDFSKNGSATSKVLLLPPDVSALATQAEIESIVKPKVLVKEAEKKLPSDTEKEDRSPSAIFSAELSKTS


Molecular target: T1, recombinant human NiG
Experiment: SPR (BIAcore), recombinant human NiG immobilised on a CM5 chip
Description: The affinity of the mouse 6A3-IgG1 mAb, 6A3-IgG4 mAb, and of the 6A3 Fab were measured by surface plasmon resonance (SPR) using a BIAcore 2000 optical biosensor (Biacore, Uppsala, Sweden) according to the manufacture's instructions. Recombinant human NIG was covalently immobilized on a flow cell of a CM5 sensor chip using amine-coupling chemistry. Briefly; the carboxymethlyladed dextran matrix was activated by injecting 35 μl of a solution containing 0.025M NHS and 0.1M EDC. […] The deactivation of the remaining NHS-ester group was performed by injection of 35 μl of 1M ethanolamine hydrochloride (pH 8.5). The surface of the sensor chip was regenerated by injecting 5 μl 0.1M HCl. […] After each injection, the sensor chip surface was regenerated with the injection of 10 μl 0.1M HCl without loss of binding activity on the surface. The kinetic constants, ka and kd and the affinity constants KA and KD were evaluated using the BIAevaluations 3.0 software supplied by the manufacturer.
Affinity measurement in BIAcore: The kinetic and the affinity binding constants of the mouse 6A3-IgG1 mAb, 6A3-IgG4 mAb, and of the 6A3 derived monovalent Fab fragment to recombinant human NogoA were measured in real time using surface plasmon resonance (SPR) technology (Biacore). […]

Binder	Kd
6A3-IgG4 mAb (antibody, V domains shown, Recombinant human IgG4/kappa made in SP2/0 cells; also called 6A3-Ig4; 6A3-Ab) VH: EVQLVESGGGLVQPGGSLRLSCAASGFTFSNYWMSWVRQAPGKGLEWVATIKQDGSQKNYVDSVKGRFTISRDNAKNSLYLRLNSLRAEDTAVYYCATELFDLWGRGSLVTVSS VL: EIVLTQSPATLSLSPGERATLSCRASQSVSSYLAWYQQKPGQAPRLLIYDASNRATGIPARFSGSGSGTDFTLTISSLEPEDFAVYYCQQRSNWPITFGQGTKLEIKR	0.14 nM
6A3 Fab monovalent fragment with his-tag (Fab, V domains shown, not shown: a dimerising Fc or GST; small tags and cut ends, A his-tag is present, but its chain and position are not stated, so it is left out., Made in E. coli; also called 6A3 derived monovalent Fab fragment; copies: 1 + 1) VH: EVQLVESGGGLVQPGGSLRLSCAASGFTFSNYWMSWVRQAPGKGLEWVATIKQDGSQKNYVDSVKGRFTISRDNAKNSLYLRLNSLRAEDTAVYYCATELFDLWGRGSLVTVSS VL: EIVLTQSPATLSLSPGERATLSCRASQSVSSYLAWYQQKPGQAPRLLIYDASNRATGIPARFSGSGSGTDFTLTISSLEPEDFAVYYCQQRSNWPITFGQGTRLEIK	1.1 nM
